According to patent US20200109196A1 (MOGAM INSTITUTE FOR BIOMEDICAL RESEARCH, published 2020):
Substitutions are numbered along the chain they refer to.

T1: recombinant human CEACAM-5/CD66e protein (R&D systems; Cat. No. 4128-CM) (human, UniProt P06731 35-685)
T1 construct: Bought protein; also called HCCM5
T1 sequence (looked up): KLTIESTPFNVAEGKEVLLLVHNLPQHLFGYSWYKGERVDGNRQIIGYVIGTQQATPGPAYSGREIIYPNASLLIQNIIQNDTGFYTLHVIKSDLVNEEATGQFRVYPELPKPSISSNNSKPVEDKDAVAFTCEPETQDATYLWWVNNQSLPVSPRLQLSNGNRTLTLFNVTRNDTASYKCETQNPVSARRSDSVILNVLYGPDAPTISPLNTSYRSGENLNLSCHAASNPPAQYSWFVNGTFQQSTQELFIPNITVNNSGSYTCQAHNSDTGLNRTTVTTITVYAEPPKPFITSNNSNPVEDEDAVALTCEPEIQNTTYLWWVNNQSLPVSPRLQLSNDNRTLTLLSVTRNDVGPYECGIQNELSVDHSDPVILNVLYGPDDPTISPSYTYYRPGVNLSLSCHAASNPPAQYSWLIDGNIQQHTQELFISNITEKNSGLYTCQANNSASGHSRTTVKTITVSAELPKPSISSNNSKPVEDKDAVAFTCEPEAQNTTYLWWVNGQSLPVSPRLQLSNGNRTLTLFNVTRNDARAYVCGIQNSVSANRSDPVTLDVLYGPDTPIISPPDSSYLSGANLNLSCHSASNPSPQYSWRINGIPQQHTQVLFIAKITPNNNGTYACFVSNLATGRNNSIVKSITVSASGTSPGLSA

T2: recombinant human CEACAM1-N domain-Kappa protein (Mogam, in-house production) (human, UniProt P13688 35-142, limits assumed)
T2 construct: domain: N domain; In-house fusion; also called HCCM1-N domain-kappa; HCCM1-N-domain-kappa
T2 sequence (looked up): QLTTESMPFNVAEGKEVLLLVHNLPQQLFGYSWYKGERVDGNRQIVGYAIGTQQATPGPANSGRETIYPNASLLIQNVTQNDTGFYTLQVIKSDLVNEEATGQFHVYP

T3: recombinant human CEACAM-1/CD66a protein (R&D systems; Cat. No. 2244-CM) (human, UniProt P13688 35-428)
T3 construct: Bought protein; captured on anti-His (His1K) biosensors in the Octet assay, so it carries a His tag; also called HCCM1; recombinant CEACAM-1/CD66a protein
T3 sequence (looked up): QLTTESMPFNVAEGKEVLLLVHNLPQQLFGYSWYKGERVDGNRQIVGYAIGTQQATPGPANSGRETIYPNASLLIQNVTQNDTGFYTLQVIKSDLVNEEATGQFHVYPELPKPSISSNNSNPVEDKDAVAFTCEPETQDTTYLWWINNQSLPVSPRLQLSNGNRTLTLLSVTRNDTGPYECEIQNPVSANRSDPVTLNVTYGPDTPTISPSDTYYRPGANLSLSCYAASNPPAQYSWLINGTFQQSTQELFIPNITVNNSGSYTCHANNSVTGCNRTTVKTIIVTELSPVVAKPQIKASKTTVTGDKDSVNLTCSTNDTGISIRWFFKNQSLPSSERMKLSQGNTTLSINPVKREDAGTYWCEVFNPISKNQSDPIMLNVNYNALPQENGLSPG

B1: C19 (antibody, human IgG4 S228P, lambda, V domains shown)
VH: EVQLLESGGGLVQPGGSLRLSCAASGFTFSGYAMSWVRQAPGKGLEWVSGIYHDGGSTYYADSVKGRFTISRDNSKNTLYLQMNSLRAEDTAVYYCARVTVLCTTYGCSSYDGMDVWGQGTLVTVSS
VL: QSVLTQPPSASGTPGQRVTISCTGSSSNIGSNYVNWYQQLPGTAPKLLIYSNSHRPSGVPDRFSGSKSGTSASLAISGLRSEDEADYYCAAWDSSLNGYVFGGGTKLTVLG
B2: C22 (antibody, human IgG4 S228P, lambda, V domains shown)
VH: EVQLLESGGGLVQPGGSLRLSCAASGFTFSDYDMSWVRQAPGKGLEWVSMIYSGSSSKYYADSVKGRFTISRDNSKNTLYLQMNSLRAEDTAVYYCAKAPLPFYFRPKSYYYAMDVWGQGTLVTVSS
VL: QSVLTQPPSASGTPGQRVTISCSGSSSNIGSNNVTWYQQLPGTAPKLLIYANSHRPSGVPDRFSGSKSGTSASLAISGLRSEDEADYYCGSWDSSLNAYVFGGGTKLTVLG
B3: C17 (antibody, human IgG4 S228P, lambda, V domains shown)
VH: EVQLLESGGGLVQPGGSLRLSCAASGFTFSDYSMSWVRQAPGKGLEWVSVIYPDDGNTYYADSVKGRFTISRDNSKNTLYLQMNSLRAEDTAVYYCARGSIWWLSLIPSSYNAMDVWGQGTLVAVSS
VL: B2 VL with S31N, N33A, T35N, S91A, S94A, A98G
B4: C15 (antibody, human IgG4 S228P, lambda, V domains shown)
VH: EVQLLESGGGLVQPGGSLRLSCAASGFTFSSYSMSWVRQAPGKGLEWVSSISPNGGNKYYADSVKGRFTISRDNSKNTLYLQMNSLGAEDTAVYYCAKDPYNIYQPLFDYWGQGTLVTVSS
VL: B2 VL with P8L, S31N, N33Y, T35N, H54N, D83E, S91T, S94A, N97S
B5: C18 (antibody, human IgG4 S228P, lambda, V domains shown)
VH: EVQLLESGGGLVQPGGSLRLSCAASGFTFSNYDMSWVRQAPGKGLEWVSGISHSSGSKYYADSVKGRFTISRDNSKNTLYLQMNSLRAEDTAVYYCARDPLPCLIPKCSYYYAMDVWGQGTLVTVSS
VL: B2 VL with S11P, N33A, N52D, S94D

biological target: T1, recombinant human CEACAM-5/CD66e …; assay: ELISA on coated antigen (0.25 µg/ml), antibody 3 µg/ml, HRP anti-human IgG Fc, OD450
From the text: (§1) All of the recombinant human CEACAM-1/CD66a protein (R&D systems; Cat No. 2244-CM, HCCM1), recombinant human CEACAM-5/CD66e protein (R&D systems; Cat. No. 4128-CM, HCCM5), recombinant human CEACAM-6/CD66c protein (R&D systems; Cat. No. 3934-CM, HCCM6), recombinant human CEACAM-3/CD66d protein (Sino Biological; Cat. No. 11933-H08H, HCCM3), human B7-H5/Gi24/VISTA protein (Sino Biological; Cat. No. 13482-H08H, HVISTA), recombinant human CEACAM-1/CD66a protein Bulk (R&D systems; Cat. No. 2244-CM, HCCM1 (bulk)), recombinant human CEACAM1-N domain-Kappa protein (Mogam, in-house production, HCCM1-N domain-kappa), and BSA protein (2.5 μg each) were dissolved in 10 ml of PBS, respectively, and dispensed into a 96-well plate at 100 μl/well, which was incubated at 4° C. overnight. Thereafter, each well was treated with 300 μl of 1% (v/v) bovine serum albumin, and incubated at 37° C. for 1 hour.
(§2) The diluted antibodies were dispensed into each well coated with each protein at 100 μl/well, and incubated at 37° C. for 1 hour. Then, each well was washed 3 times with a washing buffer prepared by diluting 10 μl of Tween 20 (Sigma-Aldrich; Cat. No. P9146) in 990 μl of PBS. Thereafter, 2 μl of HRP-conjugated human anti-IgG-Fc antibody (anti-human IgG Fc, Sigma Cat. No. A0170) was diluted in 10 ml of PBS, added to the wells at 100 μl/well, and incubated for 1 hour.
(§3) After completion of the reaction, the wells were washed three times with the washing buffer, and 100 μl of TMB solution was added to each well to induce color development. Then, 100 μl of 2 M H₂SO₄ was added to each well to stop the reaction, and the absorbance was measured at a wavelength of 450 nm.

Binding result, binds:
B1
B2
B3

biological target: T2, recombinant human CEACAM1-N …; assay: as above
From the text: as §1, §2, §3

Binding result, binds:
B4
B1
B5
B2
B3

biological target: T3, recombinant human CEACAM-1/CD66a …; assay: as above
From the text: as §1, §2, §3

Binding result, binds:
B1
B5
B2
